Laboratory results: patent US10788499B2, “Methods for assaying palmitoyl protein thioesterase 1 and tripeptidyl peptidase activity in dried blood spots for detection of neuronal ceroid lipofuscinoses in newborns” (University of Washington, priority 2015, dated 2020)
Blank lines part the entries; values can stand above or below the molecule they belong to. Ends that are not written are not given here. * marks the point of attachment. Lauroyl = CCCCCCCCCCCC(=O)*

Experiments:
[1] = Non-enzymatic hydrolysis of substrate in blank (absence of DBS), pH dependence; type: physicochemical
Excerpt: The PPT1 activity is known to have an optimum activity at pH 7 when acting on the natural substrate. […] The production of TPP-P by non-enzymatic hydrolysis in the blank sample at pH 4 was ca. 15 fold lower than that due to TPP1 activity in the DBS.

[2] = target: T1, tripeptidyl peptidase 1 (TPP1) (Homo sapiens, UniProt O14773); assay: TPP1 assay in dried blood spots with synthetic substrate, tandem mass spectrometry (SRM); type: biochemical
T1 construct: from tissue; host or cells: dried blood spots from human newborns, NCL II patients and a control
T1 sequence (O14773 196-563): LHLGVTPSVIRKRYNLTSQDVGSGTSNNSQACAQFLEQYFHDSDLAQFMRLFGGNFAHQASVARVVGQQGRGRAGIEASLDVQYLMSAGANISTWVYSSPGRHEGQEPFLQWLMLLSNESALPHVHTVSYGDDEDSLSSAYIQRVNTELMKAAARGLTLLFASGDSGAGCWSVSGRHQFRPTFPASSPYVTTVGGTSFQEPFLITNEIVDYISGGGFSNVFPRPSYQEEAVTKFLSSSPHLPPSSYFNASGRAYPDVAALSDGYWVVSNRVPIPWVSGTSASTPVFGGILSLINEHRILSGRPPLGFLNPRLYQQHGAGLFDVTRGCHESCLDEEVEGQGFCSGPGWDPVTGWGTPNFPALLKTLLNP
Experimental: (§1) Electrospray-MS/MS was carried out on a Waters Quattro Micro tandem quadrupole (quadrupole-hexapole-quadrupole) instrument using a positive ionization mode and selected reaction monitoring (SRM). Samples (10 μL) were flow-injected with an autosampler in an acetonitrile/water (v/v=80:20) solution containing 0.1% formic at a flow rate of 0.2 mL/min. The mass spectrometer settings were as follows: Capillary voltage 3.5 kV; cone 35 V; extractor 2.0 V; RF lens, 0.2 V; source temperature, 120° C.; desolvation temperature, 250° C.; cone gas flow, 50 L/h; desolvation gas flow, 500 L/h; LM 1 resolution, 14.8; HM 1 resolution, 14.8; ion energy 1, 0.2 eV; entrance, 2 V; collision, 25 eV; exit, 15 V; LM 2 resolution, 14.8; HM 2 resolution, 14.8; ion energy 2, 1.0 eV; multiplier, 650 V; gas cell Pirani pressure, 2.21×10^−3 mbar; dwell time 100 ms. Shorter dwell times (10 ms) were also investigated on the Quattro Micro instrument but led to increased coefficients of variation (CV) for intra-assay measurements from 1.5% at 100 ms to 4% at 10 ms, all for triplicate injections. The precursor ion-fragment ion SRM transitions for the PPT1 assays were monitored at m/z 762.5→m/z 423.5 and m/z 678.4→m/z 423.4 for PPT1-P and PPTI-IS, respectively, corresponding to the formation of the abundant y4 fragment ion of the peptide (FIGS. 1A and 1B). The SRM transitions for the TPP1 assays were monitored at m/z 308.3→m/z 208.3 and m/z 317.3→m/z 209.3 for TPP1-P and TPP1-IS, respectively, as shown in FIG. 2.
TPP1 substrate solution was prepared by dissolving 5 mg TPP1 substrate (FIG. 5 (right)) in 1.5 mL of dimethyl sulfoxide (DMSO). 1 mg TPP1 IS was dissolved in 1.5 mL of assay buffer, which contained 0.15 M NaCl and 0.1 M sodium acetate buffer at pH 4.0. This concentrated TPP1 IS solution was further diluted with stock assay buffer to make a 300 μM IS solution. The assay cocktail was a 100 μL mixture composed of 7.2 μL of substrate solution (40 nmol), 5 μL of 300 μM IS solution (1.5 nmol) and additional 87.8 μL of stock assay buffer. […]

[3] = Incubation of synthetic PPT1-P in assay buffer with DBS (digestion by proteolytic enzymes in rehydrated DBS); type: in vitro ADME, human; conditions: 18 h
Experimental: The leveling-off effect can be in part due to enzymatic digestion of PPT1-P by proteolytic enzymes in rehydrated DBS. This was checked by incubating synthetic PPT1-P in the assay buffer with DBS for 18 h. […] Since PPT1-P and PPT1-IS are similar hydrophobic peptides, it is safe to presume that their depletion will occur at similar rates and will not affect their molar ratio. […] Based on these measurements, the incubation time for both PPT1 and TPP1 was set at 10 h. The enzyme kinetics with respect to the synthetic substrates was established through Michaelis-Menten plots which were fitted to obtain the Km and Vmax values (FIGS. 12A and 12B). Each Michaelis-Menten curve was obtained from triplicate activity measurements over an appropriate substrate concentration range (0-500 μM and 0-300 μM). […] The measured Km were used to adjust the initial substrate concentrations in the assays to ≥2 Km value, e.g. 0.46 and 0.40 mM for PPT1-S and TPP1-S, respectively.

[4] = target: T2, palmitoyl protein thioesterase 1 (PPT1) (Homo sapiens, UniProt P50897); assay: PPT1 assay in dried blood spots with synthetic substrate, tandem mass spectrometry (SRM); type: biochemical
T2 construct: from tissue; host or cells: dried blood spots from human newborns, NCL patients and a healthy adult control
T2 sequence (P50897 28-306): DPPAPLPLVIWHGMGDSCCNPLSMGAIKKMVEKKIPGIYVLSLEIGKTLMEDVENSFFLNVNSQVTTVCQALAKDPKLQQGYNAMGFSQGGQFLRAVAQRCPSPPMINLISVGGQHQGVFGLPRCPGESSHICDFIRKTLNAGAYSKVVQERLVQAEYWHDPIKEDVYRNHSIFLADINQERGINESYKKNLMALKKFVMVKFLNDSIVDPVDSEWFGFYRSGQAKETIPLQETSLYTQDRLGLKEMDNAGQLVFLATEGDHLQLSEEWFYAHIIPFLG
Experimental: as §1
A 3-mm punch of a dried blood spot was placed in a 1.5 mL polypropylene tube (Eppendorf) and 100 μL of 100 mM phosphate buffer solution (pH 7) containing 46 nmol of PPT1 substrate (PPT1-S, FIG. 5 (left)) and 2.6 nmol of PPT1 internal standard (PPT1-IS) and 0.08% v/v Triton X-100 (ACROS, Cat #21568) was added. The solution was then vortexed briefly and incubated for 10 h at 37° C. in a thermostated air shaker at 250 rpm. After the incubation period was over, the sample was placed in an ice bath and the reaction was quenched by addition of 300 μL of ethyl acetate and 100 μL of deionized water. […]

[5] = target: T3, palmitoyl protein thioesterase (Homo sapiens, UniProt P50897); assay: Simplex PPT1 assay (C12 thioester substrate) carried out with recombinant palmitoyl protein thioesterase, LC-MS/MS; type: biochemical; conditions: 2 μL recombinant PPT1 enzyme, 0.6 mM C12 thioester substrate, pH 6.75
T3 sequence (P50897 28-306): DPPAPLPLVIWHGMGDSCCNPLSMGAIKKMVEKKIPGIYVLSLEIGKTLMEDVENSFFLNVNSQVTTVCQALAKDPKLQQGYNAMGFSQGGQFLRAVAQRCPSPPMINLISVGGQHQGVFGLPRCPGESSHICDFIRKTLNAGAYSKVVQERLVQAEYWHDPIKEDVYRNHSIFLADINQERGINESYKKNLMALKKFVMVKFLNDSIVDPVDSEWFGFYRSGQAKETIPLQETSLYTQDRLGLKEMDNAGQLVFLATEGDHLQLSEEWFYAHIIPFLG
Experimental: Assay cocktail: a substrate and internal standard stock solution (methanol solution) were pipetted into a vial and dried using a speed vacuum. After all the solvent is removed, the residue was diluted with assay buffer (0.1M phosphate citrate buffer, 0.08% Triton X-100 (or sodium taurocholate), 0.1 mM EDTA (or no EDTA) at pH=6.75) to a final concentration of 0.6 mM (substrate), 30 μM (Internal Standard), and mixed by vortexing.
[…] For the blank control, a 3.2 mm filter paper punch was placed in a vial. 30 μL of assay cocktail was added to each vial, which either includes dried blood spot (or filter paper blanks). The Eppendorf vial is shaken at 37° C. for 16 hrs using an orbital shaker (250 rpm)/incubator.
After the incubation, the assay is quenched with 100 μL of methanol/ethyl acetate=50/50 mixture, and then 400 μL of ethyl acetate, then 200 μL of 0.5M NaCl(aq), pipette up and down 10× times to mix well.
The sample tubes were then centrifuged at 3000 rpm for 5 minutes. 200 μL of upper layer solution (organic layer) was removed, and transferred to a new shallow plate. The solvent was evaporated under nitrogen gas flow, the remaining solid was reconstituted with 100 μL LC-MS solvent (55/45 water/acetonitrile with 0.1% formic acid). The solution was mixed up and down about 10 times with a pipettor.
The plate was placed on the autosampler of the LC-MS/MS for isocratic LC-MS/MS. […]

[6] = TPP1 in DBS, Michaelis-Menten fit, triplicate activity measurements
[7] = PPT1 in DBS, Michaelis-Menten fit, triplicate activity measurements

Molecule: Ac-ALLPFGC [PPT1-P]
decrease of PPT1-P compared to a control sample [3]: 25-27%

Molecule: N-Ac-Ala-Leu-Leu-Pro-Phe-Gly-Cys-S—COC11H23 (Ac-ALLPFGC(Lauroyl); also: S-acyl: name COC11H23, mods S-palmitoyl) [PPT1 substrate, cysteine terminated heptapeptide carrying an S-palmitoyl group]
non-enzymatic hydrolysis of the thioester bond ([1]; between pH 7 and 8): substantially increased
product produced on average per one DBS ([4]; 10 h incubation): 4.7 nmol
Km [4, 7]: 230 µM
Vmax [4, 7]: 217.0 µmol/L/h

Next, values leading:

production of TPP-P by non-enzymatic hydrolysis in the blank sample, fold lower than that due to TPP1 activity in the DBS ([1]; pH 4): ca. 15 fold
product produced per DBS ([2]; 10 h incubation): 1.7 nmol/DBS
Km [2, 6]: 53.3 µM
Vmax [2, 6]: 46.0 µmol/L/h
Molecule: C[C@H](N)C(=O)N[C@@H](C)C(=O)N[C@@H](Cc1ccccc1)C(=O)NCc1ccc(C(=O)NCCCNC(=O)OC(C)(C)C)cc1 [TPP1 substrate]

activity [5]: 40.4682 μmol/Lh
B1: recombinant PPT1 enzyme: recombinant palmitoyl protein thioesterase (protein, UniProt P50897 28-306, looked up)
Palmitoyl-protein …: DPPAPLPLVIWHGMGDSCCNPLSMGAIKKMVEKKIPGIYVLSLEIGKTLMEDVENSFFLNVNSQVTTVCQALAKDPKLQQGYNAMGFSQGGQFLRAVAQRCPSPPMINLISVGGQHQGVFGLPRCPGESSHICDFIRKTLNAGAYSKVVQERLVQAEYWHDPIKEDVYRNHSIFLADINQERGINESYKKNLMALKKFVMVKFLNDSIVDPVDSEWFGFYRSGQAKETIPLQETSLYTQDRLGLKEMDNAGQLVFLATEGDHLQLSEEWFYAHIIPFLG
